Drawing on article PMC3591335, this text covers stoichiometry N for one substance.

Read-outs that look alike come from different tables or passages of the source.

The target in experiment [1] is Cholera toxin B subunit expressed in E. coli (eCTB) (Vibrio cholerae) (UniProt P01556). Description: non-heat-denaturing SDS-PAGE.
For experiment [2] the target is unchanged. Description: non-heat-denaturing SDS-PAGE. The source holds these as a separate data set.

“Cholera toxin B subunit expressed in E. coli (eCTB) (from UniProt P01556 22-124) (natural protein)”: the stoichiometry N in experiment [1] worked out at 10; in experiment [2] it was 5.
